Experiments:
[1] = biological target: hCD37-LEL (Large Extracellular Loop; amino acids 107 to 242 of human CD37 with a 6xHis-tag) (human); assay: ELISA, native hCD37-LEL coated on the plate, antibody at 5 µg/mL
[2] = biological target: hCD37-LEL (Large Extracellular Loop; amino acids 107 to 242 of human CD37 with a 6xHis-tag) (human); assay: as above; remark: listed apart in the source
[3] = biological target: hCD37-LEL (Large Extracellular Loop; amino acids 107 to 242 of human CD37 with a 6xHis-tag) (human); assay: ELISA, native hCD37-LEL coated on the plate, antibody at 10 µg/mL
[4] = biological target: hCD37-LEL (Large Extracellular Loop; amino acids 107 to 242 of human CD37 with a 6xHis-tag) (human); assay: as above; remark: listed apart in the source
[5] = biological target: hCD37-LEL (Large Extracellular Loop; amino acids 107 to 242 of human CD37 with a 6xHis-tag) (human); assay: ELISA, native hCD37-LEL coated on the plate, antibody at 2.5 µg/mL
[6] = biological target: hCD37-LEL (Large Extracellular Loop; amino acids 107 to 242 of human CD37 with a 6xHis-tag) (human); assay: as above; remark: listed apart in the source
[7] = biological target: hCD37-LEL (Large Extracellular Loop; amino acids 107 to 242 of human CD37 with a 6xHis-tag) (human); assay: ELISA, denatured hCD37-LEL coated on the plate, antibody at 5 µg/mL
[8] = biological target: hCD37-ECD-Fc (amino acids 107 to 235 of human CD37 fused to murine IgG2a Fc-domain) (human); assay: ELISA, native hCD37-ECD-Fc coated on the plate, antibody at 5 µg/mL
hCD37-ECD-Fc (amino acids 107 to 235 of human CD37 fused to murine IgG2a Fc-domain) (human), sequence (chain, as listed by the source limits assumed): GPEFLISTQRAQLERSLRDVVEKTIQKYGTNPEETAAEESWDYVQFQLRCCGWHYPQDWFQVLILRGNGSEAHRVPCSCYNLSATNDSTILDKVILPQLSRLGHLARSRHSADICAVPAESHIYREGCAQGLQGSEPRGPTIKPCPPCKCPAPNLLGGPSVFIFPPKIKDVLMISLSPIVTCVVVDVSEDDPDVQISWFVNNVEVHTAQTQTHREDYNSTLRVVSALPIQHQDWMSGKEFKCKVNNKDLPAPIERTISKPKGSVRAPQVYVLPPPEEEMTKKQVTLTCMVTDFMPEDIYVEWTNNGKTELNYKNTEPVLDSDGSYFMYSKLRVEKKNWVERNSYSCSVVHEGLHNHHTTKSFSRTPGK

[9] = biological target: hCD37-LEL (Large Extracellular Loop; amino acids 107 to 242 of human CD37 with a 6xHis-tag) (human); assay: ELISA, denatured hCD37-LEL coated on the plate, antibody at 10 µg/mL
[10] = biological target: hCD37-ECD-Fc (amino acids 107 to 235 of human CD37 fused to murine IgG2a Fc-domain) (human); assay: ELISA, native hCD37-ECD-Fc coated on the plate, antibody at 10 µg/mL
[11] = biological target: hCD37-Fc-LAGA (amino acids 107 to 235 of human CD37 fused to human IgG1 Fc-domain) (human); assay: ELISA, native hCD37-Fc-LAGA coated on the plate, antibody at 5 µg/mL
hCD37-Fc-LAGA (amino acids 107 to 235 of human CD37 fused to human IgG1 Fc-domain) (human), sequence (chain, as listed by the source limits assumed): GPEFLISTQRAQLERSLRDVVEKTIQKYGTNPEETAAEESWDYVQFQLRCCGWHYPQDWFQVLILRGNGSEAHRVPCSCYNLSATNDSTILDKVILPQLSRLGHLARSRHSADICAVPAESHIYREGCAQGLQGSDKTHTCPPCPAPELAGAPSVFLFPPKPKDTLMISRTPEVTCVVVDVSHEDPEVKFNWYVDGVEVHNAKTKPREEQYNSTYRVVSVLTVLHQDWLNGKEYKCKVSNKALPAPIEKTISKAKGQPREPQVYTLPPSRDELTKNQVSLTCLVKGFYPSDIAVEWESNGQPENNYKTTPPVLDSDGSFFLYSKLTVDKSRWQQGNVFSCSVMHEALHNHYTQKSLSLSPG

[12] = biological target: hCD37-Fc-LAGA (amino acids 107 to 235 of human CD37 fused to human IgG1 Fc-domain) (human); assay: as above; remark: listed apart in the source
[13] = biological target: hCD37-LEL (Large Extracellular Loop; amino acids 107 to 242 of human CD37 with a 6xHis-tag) (human); assay: ELISA, denatured hCD37-LEL coated on the plate, antibody at 2.5 µg/mL
[14] = biological target: hCD37-ECD-Fc (amino acids 107 to 235 of human CD37 fused to murine IgG2a Fc-domain) (human); assay: ELISA, native hCD37-ECD-Fc coated on the plate, antibody at 2.5 µg/mL
[15] = biological target: hCD37-Fc-LAGA (amino acids 107 to 235 of human CD37 fused to human IgG1 Fc-domain) (human); assay: ELISA, native hCD37-Fc-LAGA coated on the plate, antibody at 10 µg/mL
[16] = biological target: hCD37-Fc-LAGA (amino acids 107 to 235 of human CD37 fused to human IgG1 Fc-domain) (human); assay: as above; remark: listed apart in the source
[17] = biological target: hCD37-ECD-Fc (amino acids 107 to 235 of human CD37 fused to murine IgG2a Fc-domain) (human); assay: ELISA, denatured hCD37-ECD-Fc coated on the plate, antibody at 5 µg/mL
[18] = biological target: hCD37-Fc-LAGA (amino acids 107 to 235 of human CD37 fused to human IgG1 Fc-domain) (human); assay: ELISA, native hCD37-Fc-LAGA coated on the plate, antibody at 2.5 µg/mL
[19] = biological target: hCD37-Fc-LAGA (amino acids 107 to 235 of human CD37 fused to human IgG1 Fc-domain) (human); assay: as above; remark: listed apart in the source
[20] = biological target: hCD37-ECD-Fc (amino acids 107 to 235 of human CD37 fused to murine IgG2a Fc-domain) (human); assay: ELISA, denatured hCD37-ECD-Fc coated on the plate, antibody at 10 µg/mL
[21] = biological target: hCD37-Fc-LAGA (amino acids 107 to 235 of human CD37 fused to human IgG1 Fc-domain) (human); assay: ELISA, denatured hCD37-Fc-LAGA coated on the plate, antibody at 5 µg/mL
[22] = biological target: hCD37-ECD-Fc (amino acids 107 to 235 of human CD37 fused to murine IgG2a Fc-domain) (human); assay: ELISA, denatured hCD37-ECD-Fc coated on the plate, antibody at 2.5 µg/mL
[23] = biological target: hCD37-Fc-LAGA (amino acids 107 to 235 of human CD37 fused to human IgG1 Fc-domain) (human); assay: ELISA, denatured hCD37-Fc-LAGA coated on the plate, antibody at 10 µg/mL
[24] = biological target: hCD37-Fc-LAGA (amino acids 107 to 235 of human CD37 fused to human IgG1 Fc-domain) (human); assay: ELISA, denatured hCD37-Fc-LAGA coated on the plate, antibody at 2.5 µg/mL
[25] = biological target: hCD37-LEL (Large Extracellular Loop; amino acids 107 to 242 of human CD37 with a 6xHis-tag) (human); assay: ELISA, denatured hCD37-LEL coated on the plate, purified antibody titrated
[26] = biological target: hCD37-LEL (Large Extracellular Loop; amino acids 107 to 242 of human CD37 with a 6xHis-tag) (human); assay: ELISA, denatured-reduced hCD37-LEL coated on the plate, antibody at 5 µg/mL
[27] = biological target: hCD37-LEL (Large Extracellular Loop; amino acids 107 to 242 of human CD37 with a 6xHis-tag) (human); assay: ELISA, denatured-reduced hCD37-LEL coated on the plate, antibody at 10 µg/mL
[28] = biological target: hCD37-LEL (Large Extracellular Loop; amino acids 107 to 242 of human CD37 with a 6xHis-tag) (human); assay: ELISA, denatured-reduced hCD37-LEL coated on the plate, antibody at 2.5 µg/mL
[29] = biological target: hCD37-Fc-LAGA (amino acids 107 to 235 of human CD37 fused to human IgG1 Fc-domain) (human); assay: ELISA, denatured-reduced hCD37-Fc-LAGA coated on the plate, antibody at 5 µg/mL
[30] = biological target: hCD37-Fc-LAGA (amino acids 107 to 235 of human CD37 fused to human IgG1 Fc-domain) (human); assay: ELISA, denatured-reduced hCD37-Fc-LAGA coated on the plate, antibody at 10 µg/mL
[31] = biological target: hCD37-Fc-LAGA (amino acids 107 to 235 of human CD37 fused to human IgG1 Fc-domain) (human); assay: ELISA, denatured-reduced hCD37-Fc-LAGA coated on the plate, antibody at 2.5 µg/mL
[32] = biological target: hCD37-Fc-LAGA (amino acids 107 to 235 of human CD37 fused to human IgG1 Fc-domain) (human); assay: ELISA, native hCD37-Fc-LAGA coated on the plate, purified antibody titrated (left panel)

hCD37-LEL (Large Extracellular Loop; amino acids 107 to 242 of human CD37 with a 6xHis-tag) (human), sequence (chain, as listed by the source limits assumed): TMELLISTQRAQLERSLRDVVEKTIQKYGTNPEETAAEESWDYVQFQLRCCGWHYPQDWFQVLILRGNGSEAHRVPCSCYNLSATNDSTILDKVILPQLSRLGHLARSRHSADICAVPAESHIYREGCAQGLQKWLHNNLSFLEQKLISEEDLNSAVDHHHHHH

NCL-CD37 mouse monoclonal anti-CD37 antibody (clone CT1, Leica Biosystems)
ELISA absorbance at 450 nm [1]: 3
ELISA absorbance at 450 nm [2]: 2.4
ELISA absorbance at 450 nm [3]: 3
ELISA absorbance at 450 nm [4]: 2.7
ELISA absorbance at 450 nm [5]: 3
ELISA absorbance at 450 nm [6]: 2
ELISA absorbance at 450 nm [7]: 2
ELISA absorbance at 450 nm [8]: 2.4
ELISA absorbance at 450 nm [9]: 2.8
ELISA absorbance at 450 nm [10]: 2.7
ELISA absorbance at 450 nm [11]: 2.6
ELISA absorbance at 450 nm [12]: 2.5
ELISA absorbance at 450 nm [13]: 1.8
ELISA absorbance at 450 nm [14]: 2.2
ELISA absorbance at 450 nm [15]: 2.8
ELISA absorbance at 450 nm [16]: 2.9
ELISA absorbance at 450 nm [17]: 3.1
ELISA absorbance at 450 nm [18]: 2.4
ELISA absorbance at 450 nm [19]: 2.1
ELISA absorbance at 450 nm [20]: 3.1
ELISA absorbance at 450 nm [21]: 3.1
ELISA absorbance at 450 nm [22]: 3.1
ELISA absorbance at 450 nm [23]: 3.2
ELISA absorbance at 450 nm [24]: 3.1
EC50 (read off the curve) [25]: 0.1 nM
ELISA absorbance at 450 nm [26]: 3.2
ELISA absorbance at 450 nm [27]: 3.3
ELISA absorbance at 450 nm [28]: 3.2
ELISA absorbance at 450 nm [29]: 3.2
ELISA absorbance at 450 nm [30]: 3.3
ELISA absorbance at 450 nm [31]: 3.2
EC50 (read off the curve) [32]: 3 nM
